Measurements published in US20160145645.

What was measured:
Experiment in all cases: cell_activity
[1] = test system: hSIRT ZFN pair (artificial); conditions: ZFN activity of the pair; assay conditions not given
[2] = test system: ZFN pair targeting CHO NW_003618207.1 (artificial); conditions: indels in CHO K1 3 days post transfection, CEL-I or sequencing
[3] = test system: ZFN pair targeting CHO Neu3 (artificial); conditions: indels in CHO K1 3 days post transfection, CEL-I or sequencing
[4] = test system: ZFN pair targeting CHO Rosa26 (artificial); conditions: indels in CHO K1 3 days post transfection, CEL-I or sequencing
[5] = test system: hRSK4 ZFN pair (artificial); conditions: ZFN activity of the pair; assay conditions not given

“ATCTTGCCTGATTTGTAAATACAAAGTTGACTGTGAA (double strand) [hSIRT ZFN recognition sequence]” gave an activity [1] of 16.7%.

CHO NW_003618207.1 bp 12931-12970 showed an activity [2] of 16%.

CHO Neu3 locus showed an activity [3] of 41%.

CHO Rosa26 locus was tested, and the activity [4] was 31%.

With “GGCTCCTACTCTGTTTGCAAGCGATGCATACATGCAA (double strand) [hRSK4 ZFN recognition sequence]” the activity [5] was 65.7%.
